# Measured values reported in patent US11584938B2, “Plant EPSPS mutant containing L195P and S247G mutations and encoding gene and use thereof” (GEVOTO LLC, priority 2017, dated 2023).
# Where a chain is given by its changes, count along the chain named.
# B1: T3: wheat EPSPS mutant, SEQ ID NO: 20, mutations S269(247)G and P118(101)S (protein)
# chain: MATSVAAPAAPAGAEEVVLQPIREISGAVQLPGSKSLSNRILLLSALSEGTTVVDNLLNSEDVHYMLEALEALGLSVEADKVAKRAVVVGCGGRFPVEKDAKEEVKLFLGNAGTAMRSLTAAVVAAGGNATYVLDGVPRMRERPIGDLVVGLQQLGADVDCFLGTNCPPVRINGKGGLPGGKVKLSGSISSQYLSSLLMAAPLALEDVEIEIIDKLISVPYVEMTLKLMEHFGVTAEHSDSWDRFYIKGGQKYKSPGNAYVEGDASSAGYFLAGAAITGGTVTVEGCGTTSLQGDVKFAEVLEMMGAKVTWTDTSVTVTGPPRQPFGRKHLKAVDVNMNKMPDVAMTLAVVALFADGPTAIRDVASWRVKETERMVAIRTELTKLGATVEEGPDYCIITPPEKLNITAIDTYDDHRMAMAFSLAACAEVPVTIRDPGCTRKTFPNYFDVLSTFVKN
# B2: T4: wheat EPSPS mutant, SEQ ID NO: 22, mutation L216(195)P (protein)
# chain: B1 chain with S118P, L216P, G269S
# Tested on: transgenic rice plants
# Test: glyphosate resistance of the EPSPS mutant in transgenic rice plants sprayed with Roundup 41% ammonium glyphosate
# Type: in vivo, rice (Nipponbare)
# In short: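 EPSPS mutant genes were cloned into pGVP1 and introduced into Nipponbare rice embryo-derived calluses via Agrobacterium EHA105 (OD 0.2, 10 min infection, 2–3 days co-culture at 25 °C in the dark). Calluses went through recovery, two 14-day screening rounds at 30 °C, two differentiation rounds and rooting to regenerate transgenic plants.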
# [1] = 1× dosage 1060 g/hectare glyphosate sprayed, recorded on 10th day
# [2] = 2× dosage 2120 g/hectare sprayed to plants surviving 1×, recorded 10 days later
# [3] = 5× dosage 5300 g/hectare sprayed to plants surviving 2×, recorded 10 days later
# [4] = 20× dosage 21200 g/hectare sprayed to plants surviving 5×, recorded 10 days later
Molecule,%++&+++ (percentage of plant having medium and high glyphosate resistance to the total number of plants observed) [1],number of plants denoted by + (low glyphosate resistance) [1],number of plants denoted by ++ (medium glyphosate resistance) [1],number of plants denoted by +++ (high glyphosate resistance) [1],number of plants denoted by − (no glyphosate resistance) [1],"glyphosate resistance / survival of the rice transformed by the EPSPS, in words (1× glyphosate dosage)",%++&+++ (percentage of plant having medium and high glyphosate resistance to the total number of plants observed) [2],number of plants denoted by + (low glyphosate resistance) [2],number of plants denoted by ++ (medium glyphosate resistance) [2],number of plants denoted by +++ (high glyphosate resistance) [2],number of plants denoted by − (no glyphosate resistance) [2],&++&+++ (percentage of plant having medium and high glyphosate resistance to the total number of plants observed) [3],number of plants denoted by + (low glyphosate resistance) [3],number of plants denoted by ++ (medium glyphosate resistance) [3],number of plants denoted by +++ (high glyphosate resistance) [3],number of plants denoted by − (no glyphosate resistance) [3],&++&+++ (percentage of plant having medium and high glyphosate resistance to the total number of plants observed) [4],number of plants denoted by + (low glyphosate resistance) [4],number of plants denoted by ++ (medium glyphosate resistance) [4],number of plants denoted by +++ (high glyphosate resistance) [4],further results
B1,71.0%,27,33,77,18,had relatively high resistance to glyphosate,51.0%,47,46,33,29,25.8%,75,38,2,40,3.2%,57,5,0,number of plants denoted by − (no glyphosate resistance) [4]: 93
B2,35.6%,30,18,8,7,obviously superior to that of the rice seedlings transformed by T0,18.2%,40,0,4,34,0.0%,12,0,0,66,0.0%,0,0,0,"glyphosate resistance / survival of the rice transformed by the EPSPS, in words (2× glyphosate dosage): some of the transgenic rice seedlings transformed by T4, T1 and T5 still survived; glyphosate resistance / survival of the rice transformed by the EPSPS, in words (5× glyphosate dosage): some of the transgenic rice seedlings transformed by T4, T1 and T5 still survived; number of plants denoted by − (no glyphosate resistance) [4]: 78"
